According to PMC12757795, “WRKY45 is a negative regulator of Botrytis cinerea resistance through the JA/ET signaling pathway in Arabidopsis”:

Molecular target: GST-WRKY45 (UniProt Q9S763 1-147)
Experiment: EMSA; Beyotime chemiluminescent EMSA kit binding buffer (composition, salt and pH not stated), room temperature, 20 min, 6% native PAGE; unlabeled competitor 5x and 50x or 50-100x (Methods)
Conditions: protein: recombinant; tags: GST; label: biotin (end); blunt

GST-WRKY45, sequence (Q9S763 whole entry): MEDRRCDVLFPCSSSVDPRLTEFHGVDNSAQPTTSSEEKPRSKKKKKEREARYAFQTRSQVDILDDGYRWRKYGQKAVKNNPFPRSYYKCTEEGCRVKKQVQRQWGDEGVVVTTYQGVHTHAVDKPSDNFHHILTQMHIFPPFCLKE

B1: ORA59-W6 (dsDNA)
DNA 1: GAAACCGACGTTAGGTTTGACTATTTTATTTACAGTC
DNA 2: GACTGTAAATAAAATAGTCAAACCTAACGTCGGTTTC
  binding result: binds

B2: ORA59-W1-M (dsDNA)
DNA 1: CGATTTAGCCGCATGTTTTTCCTATTTTGCCCACATA
DNA 2: TATGTGGGCAAAATAGGAAAAACATGCGGCTAAATCG
  binding result: no binding

B3: ORA59-W2 (dsDNA)
DNA 1: TAATCGCATCGCATGTTTGACCCATTTAGCCGCATAT
DNA 2: ATATGCGGCTAAATGGGTCAAACATGCGATGCGATTA
  binding result: binds

B4: ORA59-W3 (dsDNA)
DNA 1: CCATCTAACAACAAATTTGACCAAAAGTTTCCTTATT
DNA 2: AATAAGGAAACTTTTGGTCAAATTTGTTGTTAGATGG
  binding result: binds
